# Data from the Immune Epitope Database (IEDB).
# Legend:
# Assay in all cases: IEDB peptide-MHC binding, purified MHC/competitive/radioactivity; filed as Kd, often an IC50 or EC50 that approximates it; ≥ and ≤ were set here for values at or beyond the usual limits of such assays
# HLA-A*02:03 = biological target: HLA-A*02:03
# HLA-A*02:06 = biological target: HLA-A*02:06
# HLA-A*02:02 = biological target: HLA-A*02:02
# HLA-A*11:01 = biological target: HLA-A*11:01
# HLA-A*68:01 = biological target: HLA-A*68:01
# HLA-A*03:01 = biological target: HLA-A*03:01
# HLA-A*31:01 = biological target: HLA-A*31:01
# HLA-A*33:01 = biological target: HLA-A*33:01
# [1] = source organism: Vaccinia virus WR
# [2] = source organism: Dengue virus 3 Martinique/1243/1999
# [3] = source organism: Mammarenavirus juninense
# [4] = source organism: SARS coronavirus Tor2
# [5] = source organism: Dengue virus 4 Philippines/H241/1956
# [6] = source organism: Vaccinia virus
sequence,measurement,setting,value
TLFGRGVIDT,Kd,HLA-A*02:03; [1],95.6 nM
same,Kd,HLA-A*02:06; [1],3310 nM
same,Kd,HLA-A*02:02; [1],199 nM
TTELNIVDEI,Kd,HLA-A*02:03; [1],≥ 70400 nM
same,Kd,HLA-A*02:06; [1],≥ 21400 nM
same,Kd,HLA-A*02:02; [1],≥ 38700 nM
YIKDLKHAT,Kd,HLA-A*02:03; [1],≥ 78100 nM
same,Kd,HLA-A*02:06; [1],≥ 39400 nM
same,Kd,HLA-A*02:02; [1],18500 nM
TIDAINKCV,Kd,HLA-A*02:03; [1],634 nM
same,Kd,HLA-A*02:06; [1],406 nM
same,Kd,HLA-A*02:02; [1],90.1 nM
MLKLFTHDIM,Kd,HLA-A*02:03; [1],93.1 nM
same,Kd,HLA-A*02:06; [1],≥ 20300 nM
same,Kd,HLA-A*02:02; [1],84.6 nM
WLGAAITLVV,Kd,HLA-A*02:03; [1],78.4 nM
same,Kd,HLA-A*02:06; [1],1840 nM
same,Kd,HLA-A*02:02; [1],19.7 nM
IVLEFFMMVL,Kd,HLA-A*02:06; [2],107 nM
LNIALVAVSL,Kd,HLA-A*02:03; [3],12400 nM
same,Kd,HLA-A*02:06; [3],13100 nM
same,Kd,HLA-A*02:02; [3],179 nM
LLNMRDLIV,Kd,HLA-A*02:03; [1],1.23 nM
same,Kd,HLA-A*02:06; [1],225 nM
same,Kd,HLA-A*02:02; [1],665 nM
FMECNLNEL,Kd,HLA-A*02:03; source organism: Homo sapiens,1.1 nM
ELVKHGLRAL,Kd,HLA-A*02:06; source organism: Homo sapiens,≥ 43400 nM
GIIITVGML,Kd,HLA-A*02:03; [1],349 nM
same,Kd,HLA-A*02:06; [1],18400 nM
same,Kd,HLA-A*02:02; [1],8670 nM
QAKKPEVRI,Kd,HLA-A*02:03; [1],6570 nM
same,Kd,HLA-A*02:06; [1],≥ 41900 nM
same,Kd,HLA-A*02:02; [1],738 nM
NQGNILMDSI,Kd,HLA-A*02:03; [1],4040 nM
same,Kd,HLA-A*02:06; [1],3090 nM
same,Kd,HLA-A*02:02; [1],3930 nM
DQLVFNSISA,Kd,HLA-A*02:03; [1],289 nM
same,Kd,HLA-A*02:06; [1],759 nM
same,Kd,HLA-A*02:02; [1],206 nM
IMTSTRTIIL,Kd,HLA-A*02:03; [1],52.5 nM
same,Kd,HLA-A*02:06; [1],438 nM
same,Kd,HLA-A*02:02; [1],1020 nM
FVNFVKDMI,Kd,HLA-A*02:03; [1],124 nM
same,Kd,HLA-A*02:06; [1],229 nM
same,Kd,HLA-A*02:02; [1],55.2 nM
IASGQRCHFI,Kd,HLA-A*02:03; [1],8320 nM
same,Kd,HLA-A*02:06; [1],256 nM
same,Kd,HLA-A*02:02; [1],526 nM
HLENDKIEDL,Kd,HLA-A*02:03; [1],414 nM
same,Kd,HLA-A*02:06; [1],10600 nM
same,Kd,HLA-A*02:02; [1],526 nM
IINSVSIILA,Kd,HLA-A*02:03; [1],890 nM
same,Kd,HLA-A*02:06; [1],957 nM
same,Kd,HLA-A*02:02; [1],719 nM
LISILMIFI,Kd,HLA-A*02:03; [1],≥ 5000 nM
same,Kd,HLA-A*02:06; [1],7040 nM
same,Kd,HLA-A*02:02; [1],2370 nM
DLNIFMTLV,Kd,HLA-A*02:03; [1],556 nM
same,Kd,HLA-A*02:06; [1],2190 nM
same,Kd,HLA-A*02:02; [1],1910 nM
DITNILGGV,Kd,HLA-A*02:03; [1],1640 nM
same,Kd,HLA-A*02:06; [1],7430 nM
same,Kd,HLA-A*02:02; [1],9880 nM
GLKSKTHAVL,Kd,HLA-A*02:03; source organism: Homo sapiens,1.05 nM
same,Kd,HLA-A*02:06; source organism: Homo sapiens,≥ 69800 nM
KVVGLYGNGV,Kd,HLA-A*02:06; source organism: Dengue virus 2 Jamaica/1409/1983,11.8 nM
HQRRLVKLL,Kd,HLA-A*02:03; [1],1680 nM
same,Kd,HLA-A*02:06; [1],≥ 21300 nM
same,Kd,HLA-A*02:02; [1],15900 nM
IISTDQDTM,Kd,HLA-A*02:03; [1],≥ 33200 nM
same,Kd,HLA-A*02:06; [1],2360 nM
same,Kd,HLA-A*02:02; [1],4300 nM
AIYVFCISL,Kd,HLA-A*02:03; [4],201 nM
same,Kd,HLA-A*02:06; [4],47.7 nM
same,Kd,HLA-A*02:02; [4],143 nM
RLASMAICSA,Kd,HLA-A*02:03; [5],24.5 nM
YALCTLLHL,Kd,HLA-A*02:03; [4],768 nM
same,Kd,HLA-A*02:06; [4],1.53 nM
same,Kd,HLA-A*02:02; [4],1330 nM
TLATGPVLTL,Kd,HLA-A*02:03; [5],28.3 nM
LITLILSNK,Kd,HLA-A*11:01; [1],19 nM
same,Kd,HLA-A*68:01; [1],32.7 nM
same,Kd,HLA-A*03:01; [1],20.9 nM
same,Kd,HLA-A*31:01; [1],2080 nM
same,Kd,HLA-A*33:01; [1],6720 nM
NLKYTVIITV,Kd,HLA-A*02:03; [2],9.29 nM
RSSPPIPMSR,Kd,HLA-A*11:01; [1],1.49 nM
same,Kd,HLA-A*68:01; [1],245 nM
same,Kd,HLA-A*03:01; [1],8.73 nM
same,Kd,HLA-A*31:01; [1],1.12 nM
same,Kd,HLA-A*33:01; [1],1600 nM
KLSAGVEFLK,Kd,HLA-A*11:01; [4],27.9 nM
same,Kd,HLA-A*68:01; [4],101 nM
same,Kd,HLA-A*03:01; [4],14.9 nM
same,Kd,HLA-A*31:01; [4],516 nM
same,Kd,HLA-A*33:01; [4],6100 nM
SLYMAISPK,Kd,HLA-A*11:01; [4],21.9 nM
same,Kd,HLA-A*68:01; [4],2190 nM
same,Kd,HLA-A*03:01; [4],13.6 nM
same,Kd,HLA-A*31:01; [4],1010 nM
same,Kd,HLA-A*33:01; [4],≥ 49500 nM
VVYRAFDIY,Kd,HLA-A*11:01; [4],149 nM
same,Kd,HLA-A*68:01; [4],3340 nM
same,Kd,HLA-A*03:01; [4],163 nM
same,Kd,HLA-A*31:01; [4],7860 nM
same,Kd,HLA-A*33:01; [4],≥ 25100 nM
YLSDSDNIK,Kd,HLA-A*11:01; [1],8570 nM
same,Kd,HLA-A*68:01; [1],1120 nM
same,Kd,HLA-A*03:01; [1],2600 nM
same,Kd,HLA-A*31:01; [1],≥ 77900 nM
same,Kd,HLA-A*33:01; [1],≥ 50700 nM
ALSEAREHLK,Kd,HLA-A*11:01; [4],141 nM
same,Kd,HLA-A*68:01; [4],2960 nM
same,Kd,HLA-A*03:01; [4],80.6 nM
same,Kd,HLA-A*31:01; [4],5320 nM
same,Kd,HLA-A*33:01; [4],≥ 70000 nM
YIYSEIKQGR,Kd,HLA-A*11:01; [1],11600 nM
same,Kd,HLA-A*68:01; [1],6.39 nM
same,Kd,HLA-A*03:01; [1],1650 nM
same,Kd,HLA-A*31:01; [1],16.5 nM
same,Kd,HLA-A*33:01; [1],853 nM
KSQAKKPEVR,Kd,HLA-A*11:01; [1],10800 nM
same,Kd,HLA-A*68:01; [1],≥ 70200 nM
same,Kd,HLA-A*03:01; [1],≥ 22000 nM
same,Kd,HLA-A*31:01; [1],299 nM
same,Kd,HLA-A*33:01; [1],≥ 37200 nM
VTSSGTIYK,Kd,HLA-A*11:01; [6],0.595 nM
same,Kd,HLA-A*68:01; [6],16.8 nM
same,Kd,HLA-A*03:01; [6],8.08 nM
same,Kd,HLA-A*31:01; [6],0.577 nM
same,Kd,HLA-A*33:01; [6],10.2 nM
